Consider one molecule from patent US7718626B2, “ErbB3 binding protein compositions and methods of use” (University of Maryland, Baltimore, priority 2005, dated 2010).

Holding throughout (format): cell-based, human
Assay [1] deals with androgen-responsive genes in LNCaP cells. Nature of the assay: Microarray gene expression profiling of LNCaP cells stably transfected with ebp1. The following applies: ebp1-overexpressing LNCaP cells vs controls. The method, then:
Microarray Analysis: First and second strand cDNA were synthesized from 5-15 μg of total RNA at Genome Explorations (Nashville, Tenn.) using the SuperScript Double-Stranded cDNA Synthesis Kit (Gibco Life Technologies, Gaithersburg, Md.) and an oligo-dT24-T7 (5′-GGCCAGTGAATTGTAATACGACTCACTATAGGGAGGCGG-3′) (SEQ ID NO: 3) primer according to the manufacturer's instructions. cRNA was synthesized labeled with biotinylated UTP and CTP by in vitro transcription using the T7 promoter-coupled, double-stranded cDNA as template and the T7 RNA Transcript Labeling Kit (ENZO Diagnostics Inc., Farmingdale, N.Y.). The fragmented cRNA was hybridized for U133A oligonucleotide arrays (Affymetrix, Santa Clara, Calif.) containing ˜33,000 full-length annotated genes, together with additional probe sets designed to represent EST sequences. The arrays were then stained with phycoerythrein-conjugated streptavidin (Molecular Probes, Eugene, Oreg.), and the fluorescence intensities were determined using a laser confocal scanner (Hewlett-Packard, Palo Alto, Calif.). The scanned images were analyzed using Microarray software (Affymetrix). Sample loading and variations in staining were standardized by scaling the average of the fluorescent intensities of all genes on an array to constant target intensity for all arrays used. The signal intensity for each gene was calculated as the average intensity difference, represented by [E(PM−MM)/(number of probe pairs)], where PM and MM denote perfect-match and mismatch probes. Data analysis was conducted using Microarray Suite 5.0 (Affymetrix) following user guidelines. Only genes with a minimum expression level of 500 were included in this analysis. […] AR-regulated genes include the Androgen Receptor (AR), PSA (kallikrein 3), Kallikrein 2, POV-1, TMPRSS2, and prostate-derived factor.
Ectopic expression of Ebp1 downregulates androgen-regulated genes: Gene expression profiling of LNCaP cells stably transfected with ebp1 was used to determine the range of androgen-dependent genes affected by Ebp1 overexpression. These cells overexpress Ebp1 protein between two- and three-fold (Zhang et al., 2002, Repression of Androgen Receptor Mediated Transcription by the ErbB-3 Binding Protein Ebp1, Oncogene, 21: 5609-5618). Changes in gene expression were measured using microarray analysis of 33,000 transcripts on the Affymetrix U133A chip. To compile a list of differentially regulated genes, only those genes that were activated or repressed at least 3-fold (p <0.05, 500 minimum expression units) were included. […] Forty-one genes were induced and 126 were repressed. Seventy-two of these genes have HUGO approved names. […] These include the Androgen Receptor (3.7 fold decrease), PSA (3.7 fold decrease) as previously reported (Zhang et al., 2002, Repression of Androgen Receptor Mediated Transcription by the ErbB-3 Binding Protein Ebp1, Oncogene, 21: 5609-5618), Kallikrein 2 (3.2 fold decrease), POV-1 (5.0 fold decrease), TMPRSS2 (3.2 fold decrease), and prostate-derived factor (3.2 fold decrease). The Kallikrein 2 gene is regulated by AR, predominantly expressed in prostate tissue, secreted by LNCaP cells, and 78% homologous to PSA. […] The TMPRSS2 gene is androgen-regulated and also highly expressed in prostate and prostate cancer (Afar et al., 2001, Catalytic Cleavage of the Androgen-Regulated TMPRSS2 Protease Results in its Secretion by Prostate and Prostate Cancer Epithelia, Cancer Res., 61:1686-1692).

The test system of assay [2] is LNCaP cells. Kind of assay: Cell growth in complete media. The method, then:
(§1) Cell Growth Assays: To measure growth in complete media, cells (2×10^4) were seeded in triplicate in individual wells of 12-well tissue culture plates in RPMI-1640 with 10% FBS and cultured for the indicated number of days. Cells were trypsinized, stained with Trypan Blue (0.4%), and counted in a hemacytometer. For soft agar growth assays, increasing concentrations of cells (as indicated) were plated in 35 mm petri dishes in complete media and 0.3% Difco Bacto Agar over an 0.5% agar layer. Colonies were counted after 10 days of incubation. For studies assessing the effect of dihydrotestosterone (DHT) on cell growth, cells (2×10^4) were plated in 12-well plates in complete media. After a 24-hour attachment period, the medium was replaced with steroid-free medium [phenol red-free RPMI 1640 and 5% charcoal-stripped FBS (Sigma)] for 48 hours. The final concentration of testosterone in the steroid-reduced media was less than 5 pM. After 48 hours of steroid depletion, cells were re-fed with fresh steroid-reduced medium with or without the indicated concentrations of DHT and/or bicalutamide (10 μM), and total cell numbers were assessed 7 days later.
Growth Characteristics of LNCaP ebp1 transfectants: The growth rate of the ebp1-transfected cells in complete media was compared to that of cells transfected with the empty vector. […]

For assay [3], the system named is LNCaP cells. Kind of assay: Soft agar colony growth assay. The following applies: highest cell concentration tested, ten days. The method, then:
as §1
The soft agar growth of ebp1 transfectants was also examined. LNCaP vector controls and ebp1 transfectants were seeded at concentrations between 1×10^4 and 1×10^5 cells per dish and colony growth in soft agar assessed ten days later. […]

B1: Ebp1: ErbB3 binding protein (SEQ ID NO: 2), tested by stable ectopic expression (ebp1 transfection) in LNCaP cells (protein)
chain: MSGEDEQQEQTIAEDLVVTKYKMGGDIANRVLRSLVEASSSGVSVLSLCEKGDAMIMEETGKIFKKEKEMKKGIAFPTSISVNNCVCHFSPLKSDQDYILKEGDLVKIDLGVHVDGFIANVAHTFVVDVAQGTQVTGRKADVIKAAHLCAEAALRLVKPGNQNTQVTEAWNKVAHSFNCTPIEGMLSHQLKQHVIDGEKTIIQNPTDQQKKDHEKAEFEVHEVYAVDVLVSSGEGKAKDAGQRTTIYKRDPSKQYGLKMKTSRAFFSEVERRFDAMPFTLRAFEDEKKARMGVVECAKHELLQPFNVLYEKEGEFVAQFKFTVLLMPNGPMRITSGPFEPDLYKSEMEVQDAELKALLQSSASRKTQKKKKKKASKTAENPTSGETLEENEAGD
modifications: Homo Sapien
B1: in assay [1], the “Androgen Receptor expression, fold decrease” value is recorded as 3.7 fold decrease; the “Kallikrein 2 expression, fold decrease” value was 3.2 fold decrease; the “POV-1 expression, fold decrease” value was 5.0 fold decrease; the “PSA expression, fold decrease” value is given as 3.7 fold decrease. Further, in assay [1], the “TMPRSS2 expression, fold decrease” value turned out to be 3.2 fold decrease and the “prostate-derived factor expression, fold decrease” value stood at 3.2 fold decrease. In addition, the “growth rate in complete media” value in the assay with LNCaP cells [2] (ebp1 transfectants vs vector control, p<0.05) is recorded as “significantly decreased”. In the assay with LNCaP cells [2] (ebp1 transfectants, complete media (vector control 48 hours)), the doubling time is 72 h. In addition, in the assay with LNCaP cells [3], the “decrease of colony growth in soft agar” value is “approximately 90%”.
